± gives the standard deviation of the averaged measurements.
B1: library; a variant is named by its letters at N, in order (parent)
chain: GCUGUCACCGGUGCUUGGUACGUUAUAUUCAGCCGGUCUGAUGAGUCUNNNNNNAGACGAAACAGC

Columns and labels:
(6R,S)-folinic acid [1] = variants of: B1; experiment: normalized RNA/DNA level without ligand (relative to sTRSVctl = 100) (log10 (% of sTRSVctl)); HEK293T overexpressing SLC46A1; higher = less ribozyme self-cleavage, higher mRNA level; conditions: without (6R,S)-folinic acid; ligand present: no
How it was run: (§1)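 Library plasmids carrying ribozyme switches linked to mCherry, or to eGFP in some ligand experiments, were transfected into HEK293T at 4 µg per 6-well well, with any ligand added 1 h earlier. Seventy-two hours on, total RNA was extracted with EDTA and reverse-transcribed, amplified, barcoded and sequenced. RNA level was RNA over DNA reads normalized to a spiked-in non-cleaving sequence or to the top sequences, then scaled and log-transformed. The top set was 25 sequences, the transform was ×100 and log10, and sequences needed ≥100 DNA reads.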

(6R,S)-folinic acid [2] = variants of: B1; experiment: normalized RNA/DNA level with ligand (relative to sTRSVctl = 100) (log10 (% of sTRSVctl)); HEK293T overexpressing SLC46A1; ligand concentration (+) RNA-Seq: 6 mM; higher = less ribozyme self-cleavage, higher mRNA level; conditions: with (6R,S)-folinic acid; ligand present: yes
How it was run: as §1

Variant	normalized RNA/DNA level without ligand (log10) ((6R,S)-folinic acid [1])	normalized RNA/DNA level with ligand (log10) ((6R,S)-folinic acid [2])
GCUGUCACCGGUGCUUGGUACGUUAUAUUCAGCCGGUCUGAUGAGUCUAGUCUGAGACGAAACAGC	1.972 ± 0.0057	2.04 ± 0.048
GCUGUCACCGGUGCUUGGUACGUUAUAUUCAGCCGGUCUGAUGAGUCUAGUCUUAGACGAAACAGC	2.017 ± 0.0028	1.99 ± 0.028
GCUGUCACCGGUGCUUGGUACGUUAUAUUCAGCCGGUCUGAUGAGUCUAGUCUCAGACGAAACAGC	2.03 ± 0.016	2.02 ± 0.041
GCUGUCACCGGUGCUUGGUACGUUAUAUUCAGCCGGUCUGAUGAGUCUAGUCUAAGACGAAACAGC	1.992 ± 0.0093	2.02 ± 0.05
GCUGUCACCGGUGCUUGGUACGUUAUAUUCAGCCGGUCUGAUGAGUCUCGUCUGAGACGAAACAGC	2.008 ± 0.01	2.01 ± 0.018
GCUGUCACCGGUGCUUGGUACGUUAUAUUCAGCCGGUCUGAUGAGUCUCGUCUUAGACGAAACAGC	2.021 ± 0.0084	2 ± 0.039
GCUGUCACCGGUGCUUGGUACGUUAUAUUCAGCCGGUCUGAUGAGUCUGGUGAGAGACGAAACAGC	1.908 ± 0.012	1.99 ± 0.01
GCUGUCACCGGUGCUUGGUACGUUAUAUUCAGCCGGUCUGAUGAGUCUGGUGAAAGACGAAACAGC	1.989 ± 0.0081	2.011 ± 0.02
GCUGUCACCGGUGCUUGGUACGUUAUAUUCAGCCGGUCUGAUGAGUCUAGUGAAAGACGAAACAGC	1.933 ± 0.0071	1.99 ± 0.033
GCUGUCACCGGUGCUUGGUACGUUAUAUUCAGCCGGUCUGAUGAGUCUAGUGACAGACGAAACAGC	2.006 ± 0.0076	1.99 ± 0.04
GCUGUCACCGGUGCUUGGUACGUUAUAUUCAGCCGGUCUGAUGAGUCUAGUGAGAGACGAAACAGC	1.767 ± 0.0046	1.96 ± 0.028
GCUGUCACCGGUGCUUGGUACGUUAUAUUCAGCCGGUCUGAUGAGUCUUGUGACAGACGAAACAGC	1.949 ± 0.007	1.99 ± 0.016
GCUGUCACCGGUGCUUGGUACGUUAUAUUCAGCCGGUCUGAUGAGUCUUGUGAUAGACGAAACAGC	1.903 ± 0.016	2 ± 0.027
GCUGUCACCGGUGCUUGGUACGUUAUAUUCAGCCGGUCUGAUGAGUCUGGUGGCAGACGAAACAGC	1.98 ± 0.023	2.02 ± 0.037
GCUGUCACCGGUGCUUGGUACGUUAUAUUCAGCCGGUCUGAUGAGUCUGGUGGGAGACGAAACAGC	2.034 ± 0.014	2.059 ± 0.017
GCUGUCACCGGUGCUUGGUACGUUAUAUUCAGCCGGUCUGAUGAGUCUUGUCUCAGACGAAACAGC	2.06 ± 0.022	2.052 ± 0.02
GCUGUCACCGGUGCUUGGUACGUUAUAUUCAGCCGGUCUGAUGAGUCUUGUCUAAGACGAAACAGC	1.991 ± 0.0035	2.02 ± 0.043
GCUGUCACCGGUGCUUGGUACGUUAUAUUCAGCCGGUCUGAUGAGUCUUGUCUUAGACGAAACAGC	1.978 ± 0.016	2.03 ± 0.022
GCUGUCACCGGUGCUUGGUACGUUAUAUUCAGCCGGUCUGAUGAGUCUGGUGCGAGACGAAACAGC	2.0178 ± 0.0012	2.05 ± 0.035
GCUGUCACCGGUGCUUGGUACGUUAUAUUCAGCCGGUCUGAUGAGUCUGGUGCCAGACGAAACAGC	2.029 ± 0.0081	2.03 ± 0.039
